According to article doi:10.1101/2021.11.04.467353, “SHIP164 is a Chorein Motif Containing Lipid Transport Protein that Controls Membrane Dynamics and Traffic at the Endosome-Golgi Interface” (bioRxiv, 2021):

Biological target: the molecule itself
Assay: negative-stain electron microscopy; 2D class averages of negatively stained purified protein; 3XFLAG-SHIP164_(Δ901-1099) at 50 nM, 2% uranyl acetate; the MBP fusion locates the N-termini at the two ends of the rod

Protein	stoichiometry N
MBP-SHIP164 fusion (MBP fused to the N-terminus of SHIP164_(Δ901–1099)) (natural protein, SHIP164 (UHRF1BP1L), human, codon-optimised ORF, lacking residues 901-1099; Probably expressed in Expi293F and purified like m1, and it may also carry a 3xFLAG tag) not shown	2
3XFLAG-SHIP164^Δ901-1099 (natural protein, SHIP164 (UHRF1BP1L), human, codon-optimised ORF from Genscript, lacking the predicted unstructured segment residues 901-1099; also called 3×FLAG-SHIP164_(Δ901-1099); UHRF1BP1L; source: Expi293F, transfected, purified (anti-FLAG M2 resin, Superdex 200 gel filtration); not shown: 3xFLAG, N-terminal, kept) not shown	2
